Target: trypsin
Experiment: cell-based or functional assay

Substance: recombinant ulinastatin polypeptide (T17); mature human ulinastatin with S10A mutation, N-linked glycan at N45 and O-linked glycan at T17 (from UniProt P02760 206-352)
- specific activity of the sample (units of trypsin inhibition): 5000 U/mg

From patent US20210277090A1
